T1: Ep-CAM (UniProt P16422 24-265, limits assumed)
T1 construct: Amine coupled to a CM5 chip in the Biacore assays
T1 sequence (looked up): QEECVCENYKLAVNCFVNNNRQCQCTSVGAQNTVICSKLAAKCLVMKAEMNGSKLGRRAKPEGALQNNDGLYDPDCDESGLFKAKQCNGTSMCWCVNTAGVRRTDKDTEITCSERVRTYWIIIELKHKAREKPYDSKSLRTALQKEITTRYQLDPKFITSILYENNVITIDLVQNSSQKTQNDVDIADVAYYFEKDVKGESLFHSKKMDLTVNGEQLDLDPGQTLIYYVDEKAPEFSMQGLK

B1: ING-1 light chain L29R (Fab, V domains shown)
VH: QIQLVQSGPELKKPGETVKISCKASGYTFTKYGMNWVKQAPGKGLKWMGWINTYTEEPTYGDDFKGRFAFSLETSASTANLQINNLKSEDTATYFCARFGSAVDYWGQGTSVTVSS
VL: DIVMTQAAFSNPVTLGTSGSISCRSSKSRLHSNGITYLYWYLQKPGQSPQLLIYQMSNLASGVPDRFSSSGSGTDFTLRISRVEAEDVGVYYCAQNLELPRTFGGGTKLEMKR
notes: Fab, periplasmic extract
B2: ING-1 light chain L99K (Fab, V domains shown)
VH: QIQLVQSGPELKKPGETVKISCKASGYTFTKYGMNWVKQAPGKGLKWMGWINTYTEEPTYGDDFKGRFAFSLETSASTANLQINNLKSEDTATYFCARFGSAVDYWGQGTSVTVSS
VL: DIVMTQAAFSNPVTLGTSGSISCRSSKSLLHSNGITYLYWYLQKPGQSPQLLIYQMSNLASGVPDRFSSSGSGTDFTLRISRVEAEDVGVYYCAQNLEKPRTFGGGTKLEMKR
notes: Fab, periplasmic extract
B3: ING-1 light chain L30K (Fab, V domains shown)
VH: QIQLVQSGPELKKPGETVKISCKASGYTFTKYGMNWVKQAPGKGLKWMGWINTYTEEPTYGDDFKGRFAFSLETSASTANLQINNLKSEDTATYFCARFGSAVDYWGQGTSVTVSS
VL: DIVMTQAAFSNPVTLGTSGSISCRSSKSLKHSNGITYLYWYLQKPGQSPQLLIYQMSNLASGVPDRFSSSGSGTDFTLRISRVEAEDVGVYYCAQNLELPRTFGGGTKLEMKR
notes: Fab, periplasmic extract
B4: ING-1 light chain L29W (Fab, V domains shown)
VH: QIQLVQSGPELKKPGETVKISCKASGYTFTKYGMNWVKQAPGKGLKWMGWINTYTEEPTYGDDFKGRFAFSLETSASTANLQINNLKSEDTATYFCARFGSAVDYWGQGTSVTVSS
VL: DIVMTQAAFSNPVTLGTSGSISCRSSKSWLHSNGITYLYWYLQKPGQSPQLLIYQMSNLASGVPDRFSSSGSGTDFTLRISRVEAEDVGVYYCAQNLELPRTFGGGTKLEMKR
notes: Fab, periplasmic extract
B5: ING-1 light chain L30E (Fab, V domains shown)
VH: QIQLVQSGPELKKPGETVKISCKASGYTFTKYGMNWVKQAPGKGLKWMGWINTYTEEPTYGDDFKGRFAFSLETSASTANLQINNLKSEDTATYFCARFGSAVDYWGQGTSVTVSS
VL: DIVMTQAAFSNPVTLGTSGSISCRSSKSLEHSNGITYLYWYLQKPGQSPQLLIYQMSNLASGVPDRFSSSGSGTDFTLRISRVEAEDVGVYYCAQNLELPRTFGGGTKLEMKR
notes: Fab, periplasmic extract
B6: ING-1 light chain L99Y (Fab, V domains shown)
VH: QIQLVQSGPELKKPGETVKISCKASGYTFTKYGMNWVKQAPGKGLKWMGWINTYTEEPTYGDDFKGRFAFSLETSASTANLQINNLKSEDTATYFCARFGSAVDYWGQGTSVTVSS
VL: DIVMTQAAFSNPVTLGTSGSISCRSSKSLLHSNGITYLYWYLQKPGQSPQLLIYQMSNLASGVPDRFSSSGSGTDFTLRISRVEAEDVGVYYCAQNLEYPRTFGGGTKLEMKR
notes: Fab, periplasmic extract
B7: ING-1 light chain L30R (Fab, V domains shown)
VH: QIQLVQSGPELKKPGETVKISCKASGYTFTKYGMNWVKQAPGKGLKWMGWINTYTEEPTYGDDFKGRFAFSLETSASTANLQINNLKSEDTATYFCARFGSAVDYWGQGTSVTVSS
VL: DIVMTQAAFSNPVTLGTSGSISCRSSKSLRHSNGITYLYWYLQKPGQSPQLLIYQMSNLASGVPDRFSSSGSGTDFTLRISRVEAEDVGVYYCAQNLELPRTFGGGTKLEMKR
notes: Fab, periplasmic extract
B8: ING-1 light chain L99D (Fab, V domains shown)
VH: QIQLVQSGPELKKPGETVKISCKASGYTFTKYGMNWVKQAPGKGLKWMGWINTYTEEPTYGDDFKGRFAFSLETSASTANLQINNLKSEDTATYFCARFGSAVDYWGQGTSVTVSS
VL: DIVMTQAAFSNPVTLGTSGSISCRSSKSLLHSNGITYLYWYLQKPGQSPQLLIYQMSNLASGVPDRFSSSGSGTDFTLRISRVEAEDVGVYYCAQNLEDPRTFGGGTKLEMKR
notes: Fab, periplasmic extract
B9: ING-1 light chain L30W (Fab, V domains shown)
VH: QIQLVQSGPELKKPGETVKISCKASGYTFTKYGMNWVKQAPGKGLKWMGWINTYTEEPTYGDDFKGRFAFSLETSASTANLQINNLKSEDTATYFCARFGSAVDYWGQGTSVTVSS
VL: DIVMTQAAFSNPVTLGTSGSISCRSSKSLWHSNGITYLYWYLQKPGQSPQLLIYQMSNLASGVPDRFSSSGSGTDFTLRISRVEAEDVGVYYCAQNLELPRTFGGGTKLEMKR
notes: Fab, periplasmic extract
B10: ING-1 light chain L97D (Fab, V domains shown)
VH: QIQLVQSGPELKKPGETVKISCKASGYTFTKYGMNWVKQAPGKGLKWMGWINTYTEEPTYGDDFKGRFAFSLETSASTANLQINNLKSEDTATYFCARFGSAVDYWGQGTSVTVSS
VL: DIVMTQAAFSNPVTLGTSGSISCRSSKSLLHSNGITYLYWYLQKPGQSPQLLIYQMSNLASGVPDRFSSSGSGTDFTLRISRVEAEDVGVYYCAQNDELPRTFGGGTKLEMKR
notes: Fab, periplasmic extract
B11: ING-1 light chain L99H (Fab, V domains shown)
VH: QIQLVQSGPELKKPGETVKISCKASGYTFTKYGMNWVKQAPGKGLKWMGWINTYTEEPTYGDDFKGRFAFSLETSASTANLQINNLKSEDTATYFCARFGSAVDYWGQGTSVTVSS
VL: DIVMTQAAFSNPVTLGTSGSISCRSSKSLLHSNGITYLYWYLQKPGQSPQLLIYQMSNLASGVPDRFSSSGSGTDFTLRISRVEAEDVGVYYCAQNLEHPRTFGGGTKLEMKR
notes: Fab, periplasmic extract
B12: ING-1 light chain L99S (Fab, V domains shown)
VH: QIQLVQSGPELKKPGETVKISCKASGYTFTKYGMNWVKQAPGKGLKWMGWINTYTEEPTYGDDFKGRFAFSLETSASTANLQINNLKSEDTATYFCARFGSAVDYWGQGTSVTVSS
VL: DIVMTQAAFSNPVTLGTSGSISCRSSKSLLHSNGITYLYWYLQKPGQSPQLLIYQMSNLASGVPDRFSSSGSGTDFTLRISRVEAEDVGVYYCAQNLESPRTFGGGTKLEMKR
notes: Fab, periplasmic extract
B13: ING-1 light chain N33K (Fab, V domains shown)
VH: QIQLVQSGPELKKPGETVKISCKASGYTFTKYGMNWVKQAPGKGLKWMGWINTYTEEPTYGDDFKGRFAFSLETSASTANLQINNLKSEDTATYFCARFGSAVDYWGQGTSVTVSS
VL: DIVMTQAAFSNPVTLGTSGSISCRSSKSLLHSKGITYLYWYLQKPGQSPQLLIYQMSNLASGVPDRFSSSGSGTDFTLRISRVEAEDVGVYYCAQNLELPRTFGGGTKLEMKR
notes: Fab, periplasmic extract
B14: ING-1 light chain L29Y (Fab, V domains shown)
VH: QIQLVQSGPELKKPGETVKISCKASGYTFTKYGMNWVKQAPGKGLKWMGWINTYTEEPTYGDDFKGRFAFSLETSASTANLQINNLKSEDTATYFCARFGSAVDYWGQGTSVTVSS
VL: DIVMTQAAFSNPVTLGTSGSISCRSSKSYLHSNGITYLYWYLQKPGQSPQLLIYQMSNLASGVPDRFSSSGSGTDFTLRISRVEAEDVGVYYCAQNLELPRTFGGGTKLEMKR
notes: Fab, periplasmic extract
B15: ING-1 light chain L99E (Fab, V domains shown)
VH: QIQLVQSGPELKKPGETVKISCKASGYTFTKYGMNWVKQAPGKGLKWMGWINTYTEEPTYGDDFKGRFAFSLETSASTANLQINNLKSEDTATYFCARFGSAVDYWGQGTSVTVSS
VL: DIVMTQAAFSNPVTLGTSGSISCRSSKSLLHSNGITYLYWYLQKPGQSPQLLIYQMSNLASGVPDRFSSSGSGTDFTLRISRVEAEDVGVYYCAQNLEEPRTFGGGTKLEMKR
notes: Fab, periplasmic extract
B16: ING-1 light chain N33Y (Fab, V domains shown)
VH: QIQLVQSGPELKKPGETVKISCKASGYTFTKYGMNWVKQAPGKGLKWMGWINTYTEEPTYGDDFKGRFAFSLETSASTANLQINNLKSEDTATYFCARFGSAVDYWGQGTSVTVSS
VL: DIVMTQAAFSNPVTLGTSGSISCRSSKSLLHSYGITYLYWYLQKPGQSPQLLIYQMSNLASGVPDRFSSSGSGTDFTLRISRVEAEDVGVYYCAQNLELPRTFGGGTKLEMKR
notes: Fab, periplasmic extract
B17: ING-1 light chain L99Q (Fab, V domains shown)
VH: QIQLVQSGPELKKPGETVKISCKASGYTFTKYGMNWVKQAPGKGLKWMGWINTYTEEPTYGDDFKGRFAFSLETSASTANLQINNLKSEDTATYFCARFGSAVDYWGQGTSVTVSS
VL: DIVMTQAAFSNPVTLGTSGSISCRSSKSLLHSNGITYLYWYLQKPGQSPQLLIYQMSNLASGVPDRFSSSGSGTDFTLRISRVEAEDVGVYYCAQNLEQPRTFGGGTKLEMKR
notes: Fab, periplasmic extract
B18: ING-1 light chain L97R (Fab, V domains shown)
VH: QIQLVQSGPELKKPGETVKISCKASGYTFTKYGMNWVKQAPGKGLKWMGWINTYTEEPTYGDDFKGRFAFSLETSASTANLQINNLKSEDTATYFCARFGSAVDYWGQGTSVTVSS
VL: DIVMTQAAFSNPVTLGTSGSISCRSSKSLLHSNGITYLYWYLQKPGQSPQLLIYQMSNLASGVPDRFSSSGSGTDFTLRISRVEAEDVGVYYCAQNRELPRTFGGGTKLEMKR
notes: Fab, periplasmic extract
B19: ING-1 light chain L99R (Fab, V domains shown)
VH: QIQLVQSGPELKKPGETVKISCKASGYTFTKYGMNWVKQAPGKGLKWMGWINTYTEEPTYGDDFKGRFAFSLETSASTANLQINNLKSEDTATYFCARFGSAVDYWGQGTSVTVSS
VL: DIVMTQAAFSNPVTLGTSGSISCRSSKSLLHSNGITYLYWYLQKPGQSPQLLIYQMSNLASGVPDRFSSSGSGTDFTLRISRVEAEDVGVYYCAQNLERPRTFGGGTKLEMKR
notes: Fab, periplasmic extract
B20: ING-1 light chain L99N (Fab, V domains shown)
VH: QIQLVQSGPELKKPGETVKISCKASGYTFTKYGMNWVKQAPGKGLKWMGWINTYTEEPTYGDDFKGRFAFSLETSASTANLQINNLKSEDTATYFCARFGSAVDYWGQGTSVTVSS
VL: DIVMTQAAFSNPVTLGTSGSISCRSSKSLLHSNGITYLYWYLQKPGQSPQLLIYQMSNLASGVPDRFSSSGSGTDFTLRISRVEAEDVGVYYCAQNLENPRTFGGGTKLEMKR
notes: Fab, periplasmic extract

The test deals with T1, Ep-CAM. Kind of test: Biacore, Fab periplasmic extract.
As to B1, the binding result is “no binding”.

Consider B2, for which the “fold difference in affinity vs parental ING-1” value (“fold difference in affinity” for short) was determined as 0.02 fold.

As to B3, the binding result is “no binding”.

For the molecule B4, the binding result was “no binding”.

Regarding B5, the binding result was “no binding”.

B6: the “fold difference in affinity” value was found to be 1 fold.

Regarding B7, the binding result was “no binding”.

In the case of B8, the “fold difference in affinity” value was found to be 0.02 fold.

Regarding B9, the binding result is given as “no binding”.

In the case of B10, the binding result is reported as “no binding”.

Consider B11, for which the “fold difference in affinity” value stood at 0.05 fold.

On to B12, for which the “fold difference in affinity” value came to 0.04 fold.

Regarding B13, the “fold difference in affinity” value is 0.7 fold.

With B14, the binding result is “no binding”.

B15: the “fold difference in affinity” value was found to be 0.01 fold.

Turning to B16, the “fold difference in affinity” value stood at 0.8 fold.

Consider B17, for which the “fold difference in affinity” value was determined as 0.02 fold.

Regarding B18, the binding result is on record as “no binding”.

As to B19, the “fold difference in affinity” value was found to be 0.04 fold.

Regarding B20, the “fold difference in affinity” value is 2 fold.
